{"source": "the DeepSol protein solubility set", "data": [{"assay": "soluble on expression in E. coli; label from the status in PepcDB or PDB records", "values": [{"sequence": "MAHHHHHHMHFSPLVFHIHFTRSFSLFFRFCMQLATREGWWEEGGEKEGVFEGAIEEKTVMSFFFDEDSGDEPATKRHCTEQQQRAQGRPHGGFFNGNGEKDEDEDERPVLARAGSDRVGLRLLQGMQKPTSSSSSVLLSGKEKMRVVEAYVPLSVGGFMESSAETAVDNLSQIKPGNVMCLRSPASSASQASTGMNFVRETDLTEEERRYGKRLSSNMTQELFEVGRVDRDTGMLEAIFLDGTRRNLKAYAVRPAGFVEKELFRQWKRDPNSRPVRTVYAAPQDANASPSLSSTTQTTRTTAVDSAKRKNNTAAVELMPWWVSPQLIVRVVEKSAGDLFGKKFVVKSLSRKEGKIRLAPWQRSAGNGESAENSPVDIVGCEALETIVPKVGEQGIIVLGNMRGELVKVMERHRDVNGELASLKVCSTLTGNEFTVGPHEVCQLACPRP", "soluble on expression in E. coli": "not soluble"}, {"sequence": "MAHHHHHHMHSSPFPSLFLVSRNGAHASRFSVVQLEYITSTCFSLLQVVTYRVATCSHGTMTALADEVREKYSLSLSSDYVERCVQAKASLTSLELYQKSLWENLRDICGTSLLPYGIGAQVSATLPNAVVMQINASRDATQPLRPCADASDEEAFLNAAFQRNSSKRLLRLQLTDGNVEISALELSTLCVFQGIPTPGEKLLIHKGAEVRNGCIILSEGSVSVLGGEVRQLKQDFLANRRRLEVGYQTSNGLDGAPRFAPLQVGHHYRSSVANSGAPVDIGHQGGASPYHANERGGRRSNYSRNGGGGGRAQQAGDNYEGRVSAGDHGRGGRGGRGGRGWDSSYGGDGWRGHGRRGGGYVRRGDGGRVDSRGCVGGASYHVDTANFQPPAEKFPEINEANFPRLV", "soluble on expression in E. coli": "not soluble"}, {"sequence": "MAHHHHHHMIAATQVPGLNEISRQAASGSPFPQVLPPRYPANKVSTAGLQSSNHGAAQLVHDVNNVAAEIHHPLITAADYSDRRQLLSHITVLSGQLQRAQLLLRNTPSCVVSDADIARFDPLIAQAEVERLDSALAQLSLLHEMERARSGSLEAEQQQLREERNQLVARVDTLESRSVALETENVQLRSALEVAQQELQVLRVGESALGNKLHAIEQLQRDGGRFDGVNVVIAPPRAVCSTAAKELQLQENIQRLSLLLDMMMDPMYIAFDAGVVWITETEHHRAGGQVCGAALSNAPHDSEELTTTVGGNSPLGNASDATLPQDVVANPPHVVASEVDISLLQQQQQELCRQLDAVRESCRVAERNQERLQDLLLEEQRRTEAMAQEHCKQLQCVHDRVVHERRQVVESLVAEVEEKMRNAFRDGRLYQKQLDERLIHRRSSSTFQSRSGHSSARSTPFASRHKAFGGNGTCKGDGDANSSRSARSPILGG", "soluble on expression in E. coli": "not soluble"}, {"sequence": "MAHHHHHHMIARDPPQEGRLPDPSRLPYDDERFAEMLLEMEVNGVIDETWQDAKKARMEDVKEIANILSSLKVRDLCCVDVSEKTSNFDYMMFGTCEGARHIHLAAWAVQDADKVHRISKIKRQQTDELWEVVPVGRIVVNLMVESFREEMTLERKWAVTRSMDPLAAANAPISEGRQVKAHGLWTLTLNLQDLEDFEVDYCKDILMRQM", "soluble on expression in E. coli": "soluble"}, {"sequence": "MAHHHHHHMILHGALSQERDRLLSSYLKSPITLSFPPPLPLLALPSPPSFFVYKKNVFFFRLGMGDARSASSKASSPSCVLAATPRDFGRSAEPGDSPRPPIIAVLYRPGQAKRERQPARGGRGGGQRRLVSYFLPALAAHVRHGKQWTTYPLSFLYPYRPSHSLSTPPHTPSIITDPRITRRKLASVLSLFYLQSVTMMASGGDEQLDALVDSILQSSDHLGSIDQITQRLPSPQQQQLSNPAFTSSTQQREHTSSDSHDTGVRAHMHAVSPGGSSSSVGNFVVAVPAAHHASASTSRATATHLDTEDGEKGEEEDDLSALVERILAGPGVRGRPSTSSASSPRFSQVPPPHIGNSGATSTSGLKGATRVKGGSSSLSRTFGAGPASPNARMQAVVRRLTLWYERKEAKRVQAVYEALEREQLDCTFEPRINRLGVEVGGSVVVDEDDRPLHRRHYSADEYPRRSSASSKARGSSGSRAVSHTNTISMSSSSSRVTPHVCEYIPSLQPPSQPITGADAFVERLRRAQDERDTVREAEEAKRLHYYDPTTFRRDLTVPVPFEFVETRPRRLAAAMTAAAGGSPSRGPGDIVGVTRTSIPPFSARAAALAACGDAGATPPRPAEDGFRDVNEDKRLTPENTFLSLAPHIRETLLFDRQMELQLRRATDSVRRVTRGE", "soluble on expression in E. coli": "not soluble"}, {"sequence": "MAHHHHHHMKEGDFEGAEERFIKAIEEIEKFPEGKVDPKLVEQMRELLEDAREMKDGRFKEIQEFIQEQFAVNETERLPTAHEFYGDVDEQQHPFVSRLPNDGECSALSMPQSNTNPVQWSEHSNSMSLSLFPSQVNGRSSEASNSQPVQHVVARRKPKPLQKQKALEVESSGNVSTGSDMKRFRAES", "soluble on expression in E. coli": "soluble"}, {"sequence": "MAHHHHHHMKGVSIRQLDAIIILDSDGKRIAVKYYNDQFLPKGESKLIHKSPSRDSISYPFEDTYNNLRTVEDQKMFENDITEKARKLGGNSSETEVLILSKFTVLYLLINDVSIYIVGDEGDNEIILHEIMQTVQQCLESVTNNQIGRKQLLEKLDSIYLILDEIADSGIIMETNPNVIINRLYMHESDLQEHTPLNQAISSAKENIIRSLLSGT", "soluble on expression in E. coli": "soluble"}, {"sequence": "MAHHHHHHMKIHIFLIATIYVLFSEKLIKWTTASTTQGGDTDTHPGTPPGEGSDVSQGAGQDASQGAGQDANPDPTLPKPPSPPADDTKDTGSQGDADSSSSKIEIPPLVKPENHKTIVSAMLKNYKGVKVTGTCGADFGLFLVPHIYVHVKSEDTEIELSSELAPPEMQTKFDKTQLKKFCVKDDTKKFDFIAYIYKDILVFKWKVYEEGLSKEQDVDEMKYLLPNLKQPITSIQVHSWTGTKESYILESKDYVLGEGMPEKCDAIATDCFLSGFTDIGKCFQCKLLMQEKNINDSCFKYVSSNQKELIKKQLKITAQDDEESSEYHLSESIKNLLKNIYKKNNDDNKKKELLHFENVNSALKSELLNYCNLLKEVNMNGVLKDHQLGNVQDVFNNLTKLLEEHKEENDNVLYHKMKNEALCLKNVNDWMKNKTGLLLPQLSYDLTYKNNNFTEFTQNKSYTSQNIVDKLYCNHEYCNRLKDHNNCISKINVEDQKNCALSWAFASKYHLETIKCMKGYEPLNASVLYVTNCLKNKNKDVCTEGSNPLVFLETIEEKGFLPTESNYPYDQSKVGDICPQLQNDWDNVFENTKVLDYNNGPFSVGTKGYIAYESEAFQKDMHSFVKLVKDEIMNKGSVIAYVKAENVLGYELNGKKVQNLCGDKTPDHVVNIVGYGNYINNKGEKKSYWIVRNSWGKYWGDDGYFKVDMYGPSTCEDNFIHTVVVFNVQVPINEKFDKKEHDIYNYYLKTSPEFYHNLYYKTFNS", "soluble on expression in E. coli": "not soluble"}, {"sequence": "MAHHHHHHMKKQIKWKAHKGVVLCADWSRMSGMIVTGGEDGVYKVWDPYGCSIFVAAAGEHPITSVRFAADGESFAVGSFMNVRVCDKTGWSHSYERTTEGSAMALDWMPDGTQMILGNGTGALSIAQIVDRKVSWGPYTVTLLDSRRLTVQDVVKDTVQEIELADKVIKLELGCGYLVVCTTTQCCCYPMDRLNAPVQFDLRDPVISIILGPRQFLLADCSQGLQVYSYEGRQISVLRLQVTLKPEIMTTNLLSLSPETVAMRNPADAKRILFFDVSSGKPFDAASVAHHLDIVSVHLSQSGSLHDRKIAFIDRNNDLYFGPVHTQLGFHKLSTMTTSVAWHDSHETLVAIADGHLATWYYPSTIFTDRDLLSLTKTVRDGGHTEFTRNDRITHFHHTRVLVRRGGDGALLTLPVSPYTVMIFQLVTQKNNWDGATRLARFLKDPLLWAVLTALALRAGELNVAEIGYGALSDLAKVRYIHYIKGIPTPEARQAELALFQHRPAEAERILLQAGLVYRCIDMNTRLFKWERALEIAKERKTHLDTVLGRRERYLQEVSQKEMLAPFKDLSGKVKVDWAVIEEKVKQEVIKESERPNAKPYA", "soluble on expression in E. coli": "not soluble"}, {"sequence": "MAHHHHHHMKPLAPFVCRLPSRRILRVRGTDAHDFLQGIFTNDLRELHPAGSMYGCFLYFTGRVLCDAHLYQCKQVHEGQASILVDVHERSATELLDHLTEMKMRKKVHIDDVGKELVVLAALEETSADAQRSRDSASGCDARESSVTSLSPETLEERHTECFLDPRNDALFPRPPPPSSSSPPAAVTSPSFCLRKCVVPATWAPPLSSPDSYTTLLYSRGIGEGPDVFKCNKSLPFEGNLDFLKGVSFHKGCYVGQELTHRTHVMLVTRKRTVPLHFGPANVDPPAAGIITDEGAVTKTWPVEVGEPLYSAAREKIGEVTGVCGQVGIGLFRLRYVDKATHTVPGLQLKDGTPVQTHLPDWWPRKDVKKLLQNNS", "soluble on expression in E. coli": "soluble"}, {"sequence": "MAHHHHHHMKPTKPLLYITGYGPFLEVTENPSATIAQSVAEQVRQSGEADVHHETLDVNLEAVSKYFNRLNESVTAHLEATHPENRVLLVNVGLHSREKEKVLRLEVRAFNELEGNPIDDELPLSTCKDSAFVKGCKLETTTALIEELNAIERNGSDHHEKPRWIISYDAGRYYCNYALYRGVKMQEALNSRVFAVFLHIVASTVVCMEEQVAQVRMLVSHLLKHMEAVE", "soluble on expression in E. coli": "soluble"}, {"sequence": "MAHHHHHHMKRLIQSLQHFSVTSSEHVELFSKITLRDFGFYVSDADAMRYVADEAYSIAERAFQLENALHQHRLSASTAQVSPMAWKSSSNDTVGCSTLYQDEAVTLCWFVLPPGKVLPLHDHPGMTVWQRAMHGRLHLCSITREAVSQTSTGASTAPINGTVVFDGELDGVGDAIPASDVLGFTPTDGDGGGMLHEIRNIDATQPALFVDIISPPYNQASSSMVCGYYTAEPLNATATLLPALAADCGVRHQLKAGDKVRLRPRTNYSGPAMNAFLHVV", "soluble on expression in E. coli": "not soluble"}, {"sequence": "MAHHHHHHMLAGLLRGIRAATAPQRSRRRFLPRMRQRSSFSAVSSAAMFKNTLTTQRAQKGDYGFNVFHNSNPQHGGSYARHERRMREDEVEDFLKSVKHWRPLHEDVADGDLVDDAQSSSSTSAPAAGPPMPRLARMGEEAIMRTFQFETFREAYLFMGRVWAFCYGSDKYPHVTWEGTALTVYLYSSSFRGLSKREARVAAFLNDQYNMLRKSKWQQRRIVDGIVRQSAVEELLGEEVAAHLAHRETLRTAPLQEVQDGPRSWRSAIGSPLRSPNSGSDGAGSSMGVRES", "soluble on expression in E. coli": "not soluble"}, {"sequence": "MAHHHHHHMLCLVRAAEPKPYTALSPEALYEAVQPHDHTLRPSPFIAHQALMDFYKACDGYYGVNREEVDVQQLTSFEHKKTHGGASSGNNSGSNSGATLSSLLSGSASAAPSSSLSAAAGAPPLPPLPSPDDPNLAEKLNDYRIAQLRRNAQHVDNTVYHAHNSSNGGSNSNVANAGSSGVCHFYRTPEGCQRGAACPFTHLDKHGQPVNRVAKS", "soluble on expression in E. coli": "soluble"}, {"sequence": "MAHHHHHHMLCRNVSRSYSARRRCRPSVCVAFGALLVEPPQAAYLRRCAVSSRATATAASLSSDHASLSVCKRCEHTTTIATPPERVLTTKEQVDELMDSFAEACELITDAKESVGTTYFADDMEDAEKQTHDVLNRWESLQAALERKGTAEELQKVRNMYDLKIKQLKAELEAVREAGGAG", "soluble on expression in E. coli": "not soluble"}, {"sequence": "MAHHHHHHMLHGNWKYLRQGGRQWMEKQARDPFVLEARRRGYVARSAFKLLEMDDKFGLFARNHTRVVVDIGCSPGGWLQVARERCGDRCALFGVDLLHVSPTVTGAVCIQGDFTDMAIQQQLLSRMENVHANGLVDVVMSDMCLNRGSGGTDDRQKQMQLNMEALAFATSQLRTGGNFVCKVLGTPTAFEELRGELQRWFVRSSLCKPFSSRRGSDEAFMVCLAKRETPRPRGCNIAEGETRDFGLDDWPGFLRRPRQKR", "soluble on expression in E. coli": "not soluble"}, {"sequence": "MAHHHHHHMLKKGFTATKIIGKRCFQWWDNLNTSWKFAIGFSVLFPPLWNYNERRKAREKQVYYNKSIKDYVFFDIAIENKYVGRVLIGLYSDQVPLSVENFIQLAEGYKVKDKYIGYRNTFIHKIYPGIGLVGGNVLNDKEGLSIYGKKFPDENFDMEFVQDGDVALFNEGPHSNSSQFIITFSPMPILHKHNVVIGTVLKGMDIIRMIENVGTKLGNPMYNVKIINCGLYRSLEQDGPPFFNMLHISDKGNKNIISKKEFENLSEQQRQSLMEEIGKSEKQR", "soluble on expression in E. coli": "not soluble"}]}]}
